Laboratory results taken from US20240200044, “EVOLUTION OF TALENS” (President and Fellows of Harvard College, published 2024).

Legend:
[1] = biological target: omega-Zif268-DBD fusion (Mus musculus, UniProt P08046 SEQ:103-190); experiment: one_hybrid; pIII-luciferase induction, site at -62, E. coli
[2] = biological target: ATM-L-directed TALE-omega K59E (synthetic construct, K59E); experiment: one_hybrid; versus canonical ATM-L TALE; details: tags: N-terminal FLAG-NLS, C-terminal RNAP omega

B1: Zif268 consensus site (dsDNA)
DNA 1: GCGTGGGCG
DNA 2: CGCCCACGC
B1 was tested. Which binding signal [1] did it give?
Its binding signal is no less than 10 fold.

B2: ATM left half-site on-target (dsDNA)
DNA 1: TGAATTGGGATGCTGTTT
DNA 2: AAACAGCATCCCAATTCA
Which binding signal [2] does the source give for B2 here?
Its binding signal is 1.5 fold increase.

B3: ATM left half-site 5'A (dsDNA)
DNA 1: AGAATTGGGATGCTGTTT
DNA 2: AAACAGCATCCCAATTCT
modifications: [1 (T>A)]
For B3, which binding signal [2] is on record?
The binding signal was 2 fold increase.
